One block for each molecule: values may come before it. Bridge positions count the residues as written; N and C are the ends. Square brackets hold non-standard residues; d marks the D form. Ends that are not written are not given here. Peptide text beside a SMILES is read from it. * marks the point of attachment. FITC = O=C1OC2(c3ccc(O)cc3Oc3cc(O)ccc32)c2ccc(NC(=S)*)cc21; Met(O) = CS(=O)CC[C@H](N)C(=O)O; S5 = C=CCCC[C@](C)(N)C(=O)O; Nle = CCCC[C@H](N)C(=O)O; PEG = not defined here; βAla = NCCC(=O)O
Key:
[1] = target: T1, RAB11a (activated Q70L mutant) (Homo sapiens, UniProt P62491, Q70L); assay: Fluorescence polarization binding of FITC-labeled RFP peptides to RAB11a; conditions: FP
T1 construct: GST-RAB11a (1–173, Q70L mutant) in pGEX5x-1; made in house; host or cells: E. coli BL21
T1 sequence (P62491 1-173 Q70L): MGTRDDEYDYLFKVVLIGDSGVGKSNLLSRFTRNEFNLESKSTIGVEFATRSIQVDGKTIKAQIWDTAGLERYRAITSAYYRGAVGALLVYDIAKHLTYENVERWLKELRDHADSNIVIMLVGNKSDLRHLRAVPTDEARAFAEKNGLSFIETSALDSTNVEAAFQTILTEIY
Description: (§1) Fluorescence polarization assays were performed with for GST-RAB25 and GST-RAB11a to quantify binding to FITC-labeled unmodified and stapled RFP peptides. Initial fluorescence polarization measurements for RFP1−RFP13 were made by incubating FITC-RFP peptides (25 nM) with threefold dilutions of a given protein in FP buffer, consisting of 20 mM Tris pH 8.0, 150 mM NaCl, 5 mM MgCl2, 2 mM DTT, 10 μM GTP and 2% glycerol. Dilutions and incubations were performed in 96-well, black flat-bottom plates (Nunc) to a total volume of 100 μL, and equilibrated at room temperature for 30 min. Polarization was measured on a Spetramax-M5 multi-label plate reader (Molecular Devices) with λ ex = 485 nm and λ em = 525 nm. Polarization values were determined using the equation: P = (V − H)/(V + H), where P denotes polarization, V denotes vertical emission intensity and H represents horizontal emission intensity. Fraction bound was calculated using the equilibrium maximum polarization value obtained for a given protein among ligands, to which background-subtracted fluorescence polarization values were internally normalized. Fluorescence polarization measurements for FITC-RFP14, 24, 26, 31, and 32 were performed as detailed above with the exception that 10 nM FITC-ligand was used.

RAB25 = target: T2, RAB25 (Homo sapiens, UniProt P57735); assay: Fluorescence polarization binding of FITC-labeled RFP peptides to RAB25; conditions: FP, 30 min room temperature
T2 construct: GST-RAB25 (1–180) in pET41 Ek/LIC; made in house; host or cells: E. coli BL21
T2 sequence (P57735 1-180): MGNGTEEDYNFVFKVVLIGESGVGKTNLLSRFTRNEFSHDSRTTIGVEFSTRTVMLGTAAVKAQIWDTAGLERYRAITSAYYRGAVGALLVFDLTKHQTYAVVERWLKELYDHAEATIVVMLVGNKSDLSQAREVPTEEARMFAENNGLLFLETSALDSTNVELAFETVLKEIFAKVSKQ
Description: as §1

[2] = target: T3, GST-RAB11a (1-173, Q70L mutant) (UniProt P62491 1-173, Q70L); assay: fluorescence polarisation; FITC-peptide 25 nM with threefold dilutions of GST-RAB protein; 20 mM Tris pH 8.0, 150 mM NaCl, 5 mM MgCl2, 2 mM DTT, 10 µM GTP, 2% glycerol; room temperature, 30 min; apparent Kd from a sigmoidal (4-parameter) fit, 95% confidence interval; conditions: both partners purified
T3 construct: source: E. coli BL21, purified (glutathione sepharose, Superdex 75 gel filtration)
T3 sequence (looked up): T1 sequence (P62491 1-173 Q70L)

GST-RAB25 (1-180) [3] = target: T4, GST-RAB25 (1-180) (UniProt P57735 1-180); assay: as above; conditions: both partners purified
T4 construct: RAB25, residues 1-180, in pET41 Ek/LIC; source: E. coli BL21, purified (glutathione sepharose, Superdex 75 gel filtration)
T4 sequence (looked up): T2 sequence (P57735 1-180)

His6-RAB25 (1–180) = target: T5, His6-RAB25 (1–180) (UniProt P57735 1-180); assay: competition with bio-RFP14 (ALPHAscreen)
T5 chain: T2 sequence (P57735 1-180)

[4] = target: T3, GST-RAB11a (1-173, Q70L mutant); assay: fluorescence polarisation; as for RFP1-13 but FITC-ligand 10 nM, with threefold dilutions of GST-RAB protein; 20 mM Tris pH 8.0, 150 mM NaCl, 5 mM MgCl2, 2 mM DTT, 10 µM GTP, 2% glycerol; room temperature, 30 min; apparent Kd from a sigmoidal (4-parameter) fit, 95% confidence interval; conditions: both partners purified
GST-RAB25 (1-180) [5] = target: T4, GST-RAB25 (1-180); assay: as above; conditions: both partners purified
GST-RAB25 (1-180) [6] = target: GST-RAB25 (1-180) (UniProt P57735); assay: fluorescence polarisation; FITC-peptide 25 nM with threefold dilutions of GST-RAB protein; 20 mM Tris pH 8.0, 150 mM NaCl, 5 mM MgCl2, 2 mM DTT, 10 µM GTP, 2% glycerol; room temperature, 30 min; apparent Kd from a sigmoidal (4-parameter) fit, 95% confidence interval

Molecule: FIP2: unmodified Class-I peptide encompassing the RAB-binding domain of FIP2, FITC-labeled ({FITC-PEG}-ERDTHIRELEDYIDNLLVRVMEETPSILRVPR; reading uncertain)
binding to RAB11a (in words) ([1]; 25 nM FITC-RFP peptide, 30 min room temperature): essentially no binding | binding to RAB25 (in words) (RAB25; 25 nM FITC-RFP peptide): essentially no binding

B2: FITC-RFP9 (FIP1-derived stapled peptide, 'IDR' staple) (peptide)
chain: {FITC-PEG-βAla}-RQVRELED[S5]IDR[S5]LVRVMEETPNILRIPR
modifications: staple 9-13; reading uncertain
Kd [2]: 2400 nM | Kd (GST-RAB25 (1-180) [3]): 1200 nM

B3: FITC-RFP4 (unmodified FIP4 RAB-binding domain peptide) (peptide)
peptide: {FITC-PEG}-EQEEINFRLRQYMDKIILAILDHNPSILEIKH
modifications: reading uncertain
notes: also called fRFP4; FIP4 peptide; source: synthetic peptide (Fmoc solid phase, HPLC purified)
Kd [2]: 930 nM | Kd (GST-RAB25 (1-180) [3]): 2300 nM

B4: FITC-RFP1 (unmodified FIP1 RAB-binding domain peptide) (peptide)
peptide: {FITC-PEG}-KKEFQVRELEDYIDNLLVRVMEETPNILRIPA
modifications: reading uncertain
notes: also called fRFP1; FIP1 peptide; source: synthetic peptide (Fmoc solid phase, HPLC purified)
Kd [2]: > 5000 nM | Kd (GST-RAB25 (1-180) [3]): > 5000 nM

B5: FIP3 peptide (residues 726–756) (peptide)
peptide: KQEEINFRLQDYIDRIIVAIMETNPSILEVK
IC50 (His6-RAB25 (1–180)): > 10000 nM

B11: FITC-RFP2 (unmodified FIP2 RAB-binding domain peptide) (peptide)
peptide: {FITC-PEG}-ERDTHIRELEDYIDNLLVRVMEETPSILRVPR
modifications: reading uncertain
notes: limits worked out from the printed L485, V486 and M489; also called fRFP2; FIP2 peptide; source: synthetic peptide (Fmoc solid phase, HPLC purified)
Kd [2]: > 5000 nM | Kd (GST-RAB25 (1-180) [3]): > 5000 nM

B13: FITC-RFP6 (FIP1-derived stapled peptide, 'YID' staple) (peptide)
chain: {FITC-PEG-βAla}-RQVRELE[S5]YID[S5]LLVRVMEETPNILRIPR
modifications: staple 8-12; reading uncertain
Kd [2]: > 5000 nM | Kd (GST-RAB25 (1-180) [3]): > 5000 nM

B14: FITC-RFP5 (FIP3 RAB-binding domain peptide with oxidised methionine) (peptide)
peptide: {FITC-PEG}-KQEEINFRLQDYIDRIIVAI[Met(O)]ETNPSILEVK
modifications: reading uncertain
notes: also called fRFP5; source: synthetic peptide (separable byproduct of chemical synthesis, HPLC purified)
Kd (GST-RAB25 (1-180) [6]): > 5000 nM | Kd [2]: > 5000 nM

B15: FITC-RFP8 (FIP1-derived stapled peptide, 'IME' staple) (peptide)
chain: {FITC-PEG-βAla}-RQVRELEDYIDRLLV[S5]VME[S5]TPNILRIPR
modifications: staple 16-20; reading uncertain
Kd [2]: 40 nM | Kd (GST-RAB25 (1-180) [3]): 170 nM

B16: FITC-RFP7 (FIP1-derived stapled peptide, 'IIV' staple) (peptide)
chain: {FITC-PEG-βAla}-RQVRELEDYID[S5]LLV[S5]VMEETPNILRIPR
modifications: staple 12-16; reading uncertain
Kd [2]: 110 nM | Kd (GST-RAB25 (1-180) [3]): 510 nM

B17: FITC-RFP3 (unmodified FIP3 RAB-binding domain peptide) (peptide)
peptide: {FITC-PEG}-KQEEINFRLQDYIDRIIVAIMETNPSILEVK
modifications: reading uncertain
notes: also called fRFP3; FIP3 peptide; source: synthetic peptide (Fmoc solid phase, HPLC purified)
Kd (GST-RAB25 (1-180) [6]): > 5000 nM | Kd [2]: 2300 nM

Now from value to molecule:

loss of binding affinity for RAB11a on methionine oxidation ([1]; relative to non-oxidised peptide): ~ fivefold
Molecule: RFP5: peptide with oxidation of a methionine involved in binding, a separable byproduct of chemical synthesis ({FITC-PEG}-KQEEINFRLQDYIDRIIVAI[Met(O)]ETNPSILEVK; reading uncertain)

Kd ([1]; 10 nM FITC-ligand, GST-RAB11a (1–173, Q70L), FP buffer pH 8.0 with 10 μM GTP, 30 min room temperature, mean with 95% C.I., triplicate, read-out: apparent Kd (95% C.I.) RAB11a): > 5000 nM | Kd (RAB25; 10 nM FITC-ligand, GST-RAB25, FP buffer pH 8.0 with 10 μM GTP, mean with 95% C.I., triplicate, read-out: apparent Kd (95% C.I.) RAB25): > 5000 nM
Molecule: CC[C@H](C)[C@H](NC(=O)[C@H](CCCNC(=N)N)NC(=O)[C@H](C)NC(=O)[C@H](C)NC(=O)[C@]1(C)CCCC=CCCC[C@](C)(NC(=O)[C@H](CC(N)=O)NC(=O)[C@H](CCC(N)=O)NC(=O)[C@H](CC(C)C)NC(=O)[C@H](CCCNC(=N)N)NC(=O)[C@H](Cc2ccccc2)NC(=O)[C@H](CC(N)=O)NC(=O)[C@@H](NC(=O)[C@H](CCCNC(=N)N)NC(=O)CCNC(=O)[C@@H](N)Cc2c[nH]c3ccccc23)[C@@H](C)CC)C(=O)N[C@@H]([C@@H](C)CC)C(=O)N[C@@H](CC(=O)O)C(=O)N[C@@H](CCCNC(=N)N)C(=O)N1)C(=O)N[C@@H](C)C(=O)N[C@@H](CCC(=O)O)C(=O)N[C@H](C(=O)N[C@@H](CC(N)=O)C(=O)N1CCC[C@H]1C(=O)N[C@@H](CO)C(=O)N[C@H](C(=O)N[C@@H](CC(C)C)C(=O)N[C@@H](CCCNC(=N)N)C(=O)N[C@H](C(=O)N[C@@H](CCCCN)C(N)=O)C(C)C)[C@@H](C)CC)[C@@H](C)O [RFP32] (H-W[βAla]RINFRLQN[S5]IDR[S5]AARIAETNPSILRVK-NH2; staple 11-15)

Kd [2]: 7 nM | Kd (GST-RAB25 (1-180) [3]): 50 nM
B1: FITC-RFP11 (FIP3-derived stapled peptide, 'IIV' staple) (peptide)
chain: {FITC-PEG-βAla}-RINFRLQDYID[S5]IIV[S5]IMETNPSILEVK
modifications: staple 12-16; reading uncertain

Kd [4]: 560 nM | Kd (GST-RAB25 (1-180) [5]): 160 nM
B6: FITC-RFP24 (optimized stapled peptide, 'IDR' staple) (peptide)
chain: {FITC-PEG-βAla}-RINFRLQN[S5]IDR[S5]IVRIFETNPSILRVK
modifications: staple 9-13; reading uncertain

Kd [4]: 90 nM | Kd (GST-RAB25 (1-180) [5]): 20 nM
B7: FITC-RFP26 (optimized stapled peptide, 'IDR' staple) (peptide)
chain: {FITC-PEG-βAla}-RINFRLQN[S5]IDR[S5]IVRI[Nle]ETNPSILRVK
modifications: staple 9-13; reading uncertain

Kd [2]: 80 nM | Kd (GST-RAB25 (1-180) [3]): 40 nM
B8: FITC-RFP13 (FIP3-derived stapled peptide, 'IDR' staple) (peptide)
chain: {FITC-PEG-βAla}-RINFRLQD[S5]IDR[S5]IVAIMETNPSILEVK
modifications: staple 9-13; reading uncertain

Kd [2]: > 5000 nM | Kd (GST-RAB25 (1-180) [3]): > 5000 nM
B9: FITC-RFP10 (FIP3-derived stapled peptide, 'YID' staple) (peptide)
chain: {FITC-PEG-βAla}-RINFRLQ[S5]YID[S5]IIVAIMETNPSILEVK
modifications: staple 8-12; reading uncertain

Kd [2]: 20 nM | Kd (GST-RAB25 (1-180) [3]): 30 nM
B10: FITC-RFP12 (FIP3-derived stapled peptide, 'IME' staple) (peptide)
chain: {FITC-PEG-βAla}-RINFRLQDYIDRIIV[S5]IME[S5]NPSILEVK
modifications: staple 16-20; reading uncertain

Kd [4]: 320 nM
B12: FITC-RFP14 (optimized stapled peptide, 'IME' staple) (peptide)
chain: {FITC-PEG-βAla}-RQVRELENYIDRLLV[S5]V[Nle]E[S5]TPNILRIPR
modifications: staple 16-20; reading uncertain

— paper PMC5610242, “Stapled peptide inhibitors of RAB25 target context-specific phenotypes in cancer” (Nature Communications, 2017)
